From US9259432B1, “Composition and methods for targeted delivery of a therapeutic compound to the brain or spinal cord of a subject for treatment of neurodegenerative diseases” (Parminder J. S. Vig, priority 2011, dated 2016)

Experiments:
[1] = target: T1, S100B (Homo sapiens, UniProt P04271); assay: Thermal pull-down assay of ELP polypeptide with S100B; format: binding; details: 60 μM polypeptide, western blot with S100B antibody
T1 construct: purchased Sigma-Aldrich
T1 sequence (P04271 2-92 limits assumed): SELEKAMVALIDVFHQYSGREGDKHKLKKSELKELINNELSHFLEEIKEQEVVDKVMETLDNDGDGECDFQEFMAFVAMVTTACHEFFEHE
Description: FIG. 9 is a blot showing that CPP-ELP-TRTK12 interacts with S100B protein in vitro. Solutions containing 60 μM Synb1-ELP-TRTK12 or Synb1-ELP were mixed with or without 1 μM S100B in PBS for 30 min at 37° C. The solutions were then incubated in a hot water bath maintained at 50° C. for 5 minutes to induce SynB1-ELP-TRTK12 aggregation. After heating, the solutions were centrifugated at 14,000 rpm to recover the ELP polypeptide aggregates (pellets). The ELP polypeptide pellets were washed 3 times with PBS and reheated and pelleted between washes. To assess ELP polypeptide-S100B interactions, the remaining ELP pellets were subjected to western blotting using a S100B antibody.
Shown are the turbidity assay results of various concentrations of (b) Synb1-ELP-GGC and (c) Synb1-ELP-TRTK heated from 25° C. to 75° C. […] (d) Shown is the thermal pull-down assay procedure, where a solution containing S100B and Synb1-ELP-TRTK protein are allowed to interact at 37° C. in a microcentrifuge tube. […] Once the supernatant is removed the protein pellet can be analyzed by western blotting techniques to reveal protein-protein interactions. […] Solutions containing 60 μM Synb1-ELP-TRTK or Synb1-ELP-GGC (control peptide) were mixed with or without 1 μM S100B and subjected to thermal pull-down assay procedure and analyzed by western blotting using an S100B antibody. […]

[2] = system: SHSY5Y cells; assay: 488-S100B uptake in SHSY5Y cells; format: cell-based; details: then 1 μM 488-S100B 3 hrs
Description: FIG. 14: (a) WT SHSY5Y cells were placed on chamber slides and pretreated with 50 μM Synb1-ELP-TRTK or Synb1-ELP-GGC for 1 hr at 37° C. Next, cells were washed then treated with 1 μM 488-S100B for 3 hrs followed by washing, fixation and DAPI staining. Shown is DAPI nuclear stain in blue and 488-S100B in green. Scale bar: 10 μm. (b) SHSY5Y cells were placed on 6-well plates and pretreated with 50 μM Synb1-ELP-TRTK12 or Synb1-ELP-GGC for 1 hr at 37° C. then treated with 1 μM 488-S100B for 3 hrs, then cells were removed and 488-S100B uptake was measured using flow cytometry. Data is shown as MEAN±STDEV of the % Uptake relative to the control. Statistics were taken using student's t-test. *P<0.05.
SHSY5Y cells (Invitrogen, Carlsbad, Calif., USA) were maintained in DMEM/F12 media (Fisher, Houston, Tex., USA) supplemented with 15% FBS, penicillin-streptomycin (Sigma), and grown in an incubator at 37° C. in the presence of 5% CO2. […] Next, cells were washed then treated with 1 μM 488-S100B for 3 hrs and S100B uptake was analyzed by Epi-fluorescence or by Beckman Cytometric FC 500 flow cytometer as previously described (Bidwell et al., 2009). For flow cytometry experiments, 488-S100B uptake was measured by quenching extracellular fluorescence by coating the cells with Trypan Blue (Fisher) as described previously (Bidwell et al., 2009). […]

Synb1-ELP-TRTK: thermally responsive S100B inhibitory polypeptide: Synb1 cell penetrating peptide, elastin-like polypeptide (ELP) and TRTK12 peptide fused
interaction with S100B dimer and monomer (FIG. 9) ([1]; 1 μM S100B in PBS, aggregation at 50° C.): strong interaction | interaction with S100B (FIG. 11E) ([1]; 1 μM S100B, thermal cycling at 42° C.): bound both S100B monomers and dimers | 488-S100B uptake, epi-fluorescence ([2]; 50 μM pretreatment 1 hr at 37° C.): reduced 488-S100B cellular uptake | 488-S100B uptake, flow cytometry ([2]; 50 μM pretreatment 1 hr, vs Control and Synb1-ELP-GGC pretreated cells): significantly reduced 488-S100B uptake
